Source: patent US20100254992A1
One block for each binder: values may come before it.

What was measured:
[1] = target: Human Monocyte Chemoattractant Protein-1 (MCP-1) (human) (UniProt P13500); experiment: cell-based or functional assay
[2] = target: Human Monocyte Chemoattractant Protein-1 (MCP-1) (human) (UniProt P13500); experiment: 125I-MCP-1 binding to CCR2 on THP-1 cells, radioligand competition
[3] = target: Human Monocyte Chemoattractant Protein-1 (MCP-1) (human) (UniProt P13500); experiment: IGEN (BioVeris), MCP-1 Kd
[4] = target: HuMCP-1-His6 Mutant-5 (46IV47 → 46KR47) (human) (UniProt P13500); experiment: Biacore, C775 captured, MCP-1-His6 in solution
[5] = target: HuMCP-1-His6 Mutant-9 (4AINA7 . . . 46IV47 → 4SVSI7 . . . 46KR47) (human); experiment: Biacore, C775 captured, MCP-1-His6 in solution
[6] = target: HuMCP-1-His6 Mutant-P8A (human) (UniProt P13500); experiment: Biacore, C775 captured, MCP-1-His6 in solution
[7] = target: HuMCP-1-His6 Mutant-2 (6NA7 → 6SI7) (human) (UniProt P13500); experiment: Biacore, C775 captured, MCP-1-His6 in solution
[8] = target: HuMCP-1-His6 Mutant-6 (66D → 66K) (human) (UniProt P13500); experiment: Biacore, C775 captured, MCP-1-His6 in solution
[9] = target: HuMCP-1-His6 Mutant-3 (15FT16 → 15VI16) (human) (UniProt P13500); experiment: Biacore, C775 captured, MCP-1-His6 in solution
[10] = target: HuMCP-1-His6 Mutant-7 (4AINA7 → 4SVSI7) (human) (UniProt P13500); experiment: Biacore, C775 captured, MCP-1-His6 in solution
[11] = target: HuMCP-1-His6 Mutant-Y13A (human) (UniProt P13500); experiment: Biacore, C775 captured, MCP-1-His6 in solution
[12] = target: HuMCP-1-His6 Mutant-1 (33SSK35 → 33NIQ35) (human) (UniProt P13500); experiment: Biacore, C775 captured, MCP-1-His6 in solution
[13] = target: HuMCP-1-His6 Mutant-8 (4AINA7 → 4GGGG7) (human) (UniProt P13500); experiment: Biacore, C775 captured, MCP-1-His6 in solution
[14] = target: HuMCP-1-His6 (wild type) (human) (UniProt P13500); experiment: Biacore, C775 captured, MCP-1-His6 in solution
[15] = target: HuMCP-1-His6 Mutant-4 (29R → 29T) (human) (UniProt P13500); experiment: Biacore, C775 captured, MCP-1-His6 in solution
[16] = target: HuMCP-1-His6 Mutant-6 (66D → 66K) (human) (UniProt P13500); experiment: Biacore
[17] = target: HuMCP-1-His6 (wild type) (human) (UniProt P13500); experiment: Biacore

HuMCP-1-His6 Mutant-1 (33SSK35 → 33NIQ35) (human), sequence (P13500 other isoform, or with tags, fused parts or gaps mutant limits assumed): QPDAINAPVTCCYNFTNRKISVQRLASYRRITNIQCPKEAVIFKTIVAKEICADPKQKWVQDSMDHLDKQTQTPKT
HuMCP-1-His6 Mutant-4 (29R → 29T) (human), sequence (P13500 other isoform, or with tags, fused parts or gaps mutant limits assumed): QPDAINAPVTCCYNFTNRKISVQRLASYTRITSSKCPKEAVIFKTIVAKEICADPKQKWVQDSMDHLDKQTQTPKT
HuMCP-1-His6 Mutant-8 (4AINA7 → 4GGGG7) (human), sequence (P13500 other isoform, or with tags, fused parts or gaps mutant limits assumed): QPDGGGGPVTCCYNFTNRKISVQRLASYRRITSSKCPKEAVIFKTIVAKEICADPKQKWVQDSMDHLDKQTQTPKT
HuMCP-1-His6 Mutant-7 (4AINA7 → 4SVSI7) (human), sequence (P13500 other isoform, or with tags, fused parts or gaps mutant limits assumed): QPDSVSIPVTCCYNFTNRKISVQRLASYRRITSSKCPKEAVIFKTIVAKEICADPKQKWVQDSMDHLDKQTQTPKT
HuMCP-1-His6 (wild type) (human), sequence (P13500 24-99 limits assumed): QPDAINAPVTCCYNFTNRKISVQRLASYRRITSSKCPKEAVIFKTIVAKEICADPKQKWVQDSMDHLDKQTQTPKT
Human Monocyte Chemoattractant Protein-1 (MCP-1) (human), sequence (P13500 24-99 limits assumed): as above
HuMCP-1-His6 Mutant-6 (66D → 66K) (human), sequence (P13500 other isoform, or with tags, fused parts or gaps mutant, form in doubt): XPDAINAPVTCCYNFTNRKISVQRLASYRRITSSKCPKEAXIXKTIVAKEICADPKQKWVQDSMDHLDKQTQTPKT
HuMCP-1-His6 Mutant-2 (6NA7 → 6SI7) (human), sequence (P13500 other isoform, or with tags, fused parts or gaps mutant limits assumed): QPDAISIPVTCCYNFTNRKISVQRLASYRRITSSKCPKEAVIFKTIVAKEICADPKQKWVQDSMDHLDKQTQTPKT
HuMCP-1-His6 Mutant-Y13A (human), sequence (P13500 24-99 Y36A limits assumed): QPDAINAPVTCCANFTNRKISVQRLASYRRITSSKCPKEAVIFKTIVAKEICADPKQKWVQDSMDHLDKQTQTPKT
HuMCP-1-His6 Mutant-3 (15FT16 → 15VI16) (human), sequence (P13500 other isoform, or with tags, fused parts or gaps mutant limits assumed): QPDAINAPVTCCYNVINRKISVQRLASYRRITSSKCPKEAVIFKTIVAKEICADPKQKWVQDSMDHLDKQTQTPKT
HuMCP-1-His6 Mutant-P8A (human), sequence (P13500 other isoform, or with tags, fused parts or gaps limits assumed, stated change not applied): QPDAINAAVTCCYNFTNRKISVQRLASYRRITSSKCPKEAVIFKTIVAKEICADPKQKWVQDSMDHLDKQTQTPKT
HuMCP-1-His6 Mutant-9 (4AINA7 . . . 46IV47 → 4SVSI7 . . . 46KR47) (human), sequence (chain, as listed by the source mutant limits assumed): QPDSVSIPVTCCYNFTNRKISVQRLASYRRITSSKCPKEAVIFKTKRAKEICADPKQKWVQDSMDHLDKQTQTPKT
HuMCP-1-His6 Mutant-5 (46IV47 → 46KR47) (human), sequence (P13500 other isoform, or with tags, fused parts or gaps mutant limits assumed): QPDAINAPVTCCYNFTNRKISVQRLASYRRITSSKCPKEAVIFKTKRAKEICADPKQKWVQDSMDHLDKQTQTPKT

- Inhibition of Ca2+ Mobilization IC50 [1]: 71.5 nM
- IC50 [2]: 35.6 nM
- Kd [3]: 65 nM
B1: C775 Fab (reference Fab) (Fab, from another filing, V domains shown)
VH: QVQLKQSGAELVRPGASVKLSCKASGYTFTDYYINWVKQRPGQGLEWIARIYPGTGNTYYNENFKGKATLTAEKSSSTAYMQLSSLTSEDSAVYFCARSGSTVVGNYYGMDYWGQGTSVTVSS
VL: SIVMTQTPKFLLVSAGDRVSITCKASQSVSNDVAWYQQKPGQSPKLLIYYASNRYTGVPDRFTGSGYGTDFTFTISTVQAEDLAVYFCQQDYSSPWTFGGGTKLEIKR

- Kd [4]: 1.7 nM
- koff [4]: 0.00278 s⁻¹
- kon [4]: 1.64e+06 M⁻¹ s⁻¹
- Kd [5]: 1.7 nM
- koff [5]: 0.00531 s⁻¹
- kon [5]: 3.16e+06 M⁻¹ s⁻¹
- Kd [6]: 2.6 nM
- koff [6]: 0.00448 s⁻¹
- kon [6]: 1.75e+06 M⁻¹ s⁻¹
- Kd [7]: 6.3 nM
- koff [7]: 0.00548 s⁻¹
- kon [7]: 868000 M⁻¹ s⁻¹
- Kd [8]: 27.7 nM
- koff [8]: 0.00541 s⁻¹
- kon [8]: 195000 M⁻¹ s⁻¹
- Kd [9]: 4.5 nM
- koff [9]: 0.0074 s⁻¹
- kon [9]: 1.66e+06 M⁻¹ s⁻¹
- Kd [10]: 4.5 nM
- koff [10]: 0.00327 s⁻¹
- kon [10]: 720000 M⁻¹ s⁻¹
- Kd [11]: 1.7 nM
- koff [11]: 0.003 s⁻¹
- kon [11]: 1.79e+06 M⁻¹ s⁻¹
- Kd [12]: 2 nM
- koff [12]: 0.0034 s⁻¹
- kon [12]: 1.6e+06 M⁻¹ s⁻¹
- Kd [13]: 5.5 nM
- koff [13]: 0.00947 s⁻¹
- kon [13]: 1.73e+06 M⁻¹ s⁻¹
- Kd [14]: 3.1 nM
- koff [14]: 0.00503 s⁻¹
- kon [14]: 1.64e+06 M⁻¹ s⁻¹
- Kd [15]: 3 nM
- koff [15]: 0.0027 s⁻¹
- kon [15]: 880000 M⁻¹ s⁻¹
- fold decrease in fold change in binding affinity against wild type MCP-1 [16]: 9 fold
- Kd [17]: 3 nM
- Inhibition of Ca2+ Mobilization IC50 [1]: 62.3 nM
- IC50 [2]: 25.6 nM
B2: C775 (murine anti-human MCP-1 antibody, IgG) (antibody, from another filing, V domains shown)
VH: QVQLKQSGAELVRPGASVKLSCKASGYTFTDYYINWVKQRPGQGLEWIARIYPGTGNTYYNENFKGKATLTAEKSSSTAYMQLSSLTSEDSAVYFCARSGSTVVGNYYGMDYWGQGTSVTVSS
VL: SIVMTQTPKFLLVSAGDRVSITCKASQSVSNDVAWYQQKPGQSPKLLIYYASNRYTGVPDRFTGSGYGTDFTFTISTVQAEDLAVYFCQQDYSSPWTFGGGTKLEIKR
